Literature values as cited in publication PMC2868910.

Target: thrombomodulin (Homo sapiens) (UniProt P07204)

Q: With thrombin (from UniProt P00734) as the substance, how does the Kd read?
A: 0.5 nM
